Results as given in article PMC7770097 (Biochimica et biophysica acta. Proteins and proteomics, 2020).

Key:
[1] = molecular target: human uPA (form not stated) (human, UniProt P00749); test: ELISA
[2] = molecular target: full-length uPA (human urokinase plasminogen activator) (Homo sapiens, UniProt P00749, biotin (biotinylated antigen on streptavidin biosensors)); test: BLI

B1: AB2 Fab (Fab, V domains shown)
VH: QLTQSGGGLVKPGRSLRLSCTASGFTFGDYAMSWVRQAPGKGLEWVGFVRSESAGATTEYAASVKGRFTISRDDSKSIAYLQMNALKTEDTAVYYCIRGANWNWGQGTLVTVSS
VL: EIVLTQSPLSLPVTPGEPASISCRSSQLMNRNGNNFLDWYLQKPGQSPQLLIYLGSNRAPGVPDRFSGSGSGTDFTLKISRVEAEDVGVYYCMARVEAPYSFGQGTKLEIR
[1]
  binding result: binds
[2]
  binding result: binds
